Measurements reported in the supplement of paper PMC9170038.

Test system: K4 kissing-loop RNA reporter
Assay: apparent KD of K4 kissing-loop reporter; higher = weaker reporter binding
Conditions: Eterna round: R107
Experimental: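 RNA-MaP round R107: designed RNA switches with theophylline, tryptophan, arginine or FMN aptamers are transcribed on-chip within common flanks. They are titrated with a labelled K4 kissing-loop RNA reporter in RNA-MaP buffer (100 mM Tris pH 7.5, 80 mM KCl, 4 mM MgCl2), without ligand or with the indicated ligand. Median apparent KD per design.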

[1] = input ligand: theophylline 20 uM
[2] = input ligand: tryptophan 2.4 mM
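Further: bound reporter read as fluorescence of individual clusters on recovered sequencing chips by microscopy, with normalized cluster intensities fitted with a binding model.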

| Sequence | apparent KD of K4 kissing-loop reporter (input ligand: FMN 200 uM) | apparent KD of K4 kissing-loop reporter (input ligand: arginine 13.2 mM) | apparent KD of K4 kissing-loop reporter (input ligand: none) | apparent KD of K4 kissing-loop reporter [1] | apparent KD of K4 kissing-loop reporter [2] |
| --- | --- | --- | --- | --- | --- |
| CUUGGGCUUGCGGCCGCCACUCAAACAUCAUUAAGGAUGGUCCACGGGCAAGUGAUGUUUAUCCGGAGGACCGGGCAUAGCGACA [theeternabot_exclusion_KL_Trp_B_23] | 337 nM | 270 nM | 315 nM | 315 nM | 342 nM |
| GACUGGUUAACAGAUACCAGCCACAAGCGUUGAGGCGGCGGUAAAGUGAUGUUUUAUAAAGGCCCUUGGCAGCUGACUAGUUCGU [theeternabot_exclusion_KL_Theo_B_28] | 371 nM | 387 nM | 383 nM | 381 nM | 324 nM |
| GAGAUAGAGGCGGCCGCCACUAGUGAUGUUAGUGAUGUUAGAAAGAGAAUAGAACAGGGAUUAGAUAGGACCGGGCCAGAUGGAG [vvhmullin] | 64.4 nM | 46 nM | 60.4 nM | 62.2 nM | 60.1 nM |
| GAGAUAGAGGCGGCCGCCACUAGUGAUGUUAGUGAUGUUAGAUAGAGAAUAGAACAGAGGUAGGAUAGGACCGGGCCAGAUAGAG [whbob_SS_Tryp_B_w31] | 90.6 nM | 65.3 nM | 62.4 nM | 77 nM | 83.7 nM |
| GAGAUAGCGACGGCCGCCACUAGUGAUGUUAGUGCUGGUAGAUAGAUACUGGAACAGAAAUGACGUAGGACCGGGUCAGAUAGAG [#01 K4 Tryptophan B Exclusion] | 264 nM | 233 nM | 292 nM | 334 nM | 247 nM |
| GAGCGGUGGAGGUUACCGCUAUUCUGAGAAGGAGCGCAGAAGACUGCAGGUAGGUCGCUUAGAGCUUGCAGUGAUGUUGCAAGUU [KL-SSArg-A13] | 173 nM | 122 nM | 141 nM | 160 nM | 127 nM |
| GAGGUACAGCUGGCCGUCGAAUUGUCCGAUACCAGACACUCUCUAGUCCCUUGGCAGCGGUGGUAAGUGAUGUUUACAGGCGCCG [theeternabot_exclusion_KL_Theo_A_3] | 152 nM | 104 nM | 147 nM | 122 nM | 126 nM |
| GCAACAUUGGUAGGAUAUCAUUCUGAGUGAUGUUCAGGGUUCAGCUAACGAAAGUUAGUUGUACCAUGAGAAGGACUAAUGUUGC [Omei KL FMN B SS A v3] | 337 nM | 766 nM | 1220 nM | 1060 nM | 915 nM |
| GCAAGAGAGUGAUGUUGUUUUGAUCAGGGCAAGGAUAUGCUAUAUAGCAGAAGGUGCCGUUUUCUGCUGGCUUUCGUUACCCAUU [theeternabot_exclusion_KL_FMN_A_6] | 750 nM | 605 nM | 865 nM | 990 nM | 708 nM |
| GCACGUACCCGAAGGAGCGUGCAAGAAUCGUAGUGAUGUUACGGAGAGUGUCACGCCGUCGCACAGGUAGGUCGCGGGUACGUGC | 78.3 nM | 80.3 nM | 67.5 nM | 63.2 nM | 61.4 nM |
| GCAGUGAUGUUGCACGAGUAGGGUAGAGUGCGAGGACCGGUACGGCCGCCACUCGUAUGGAACUCGCUAAUUUAUGGAAUGGUGA [whbob_SS_tryp_A] | 791 nM | 828 nM | 1020 nM | 920 nM | 575 nM |
| GCAGUGAUGUUGCGGAUGUACAGUGGCGUGCGAGGACCGGUACGGCCGCCACUCGUACAGAGCGAGCUAAUACAUCGAUAGGUGA [whbob_SS_Tryp_A_m5] | 230 nM | 212 nM | 236 nM | 288 nM | 241 nM |
| GCAUCCAUGGCAGGAUAUAGGUUCAUGGAGUGAUGUUCCAUAACCCGAGUGAUGUUCGUUAUCCACCUAGAAGGGCCAUGGAUGC | 208 nM | 173 nM | 206 nM | 196 nM | 180 nM |
| GCCCGAAAGGGCCGAAGUGUUUGCGGCGAUCGAGGACCGGUACGGCCGCCACUCGUCGAGGCGUUCAGUGAUGUUGAAAGCAUGA | 250 nM | 257 nM | 215 nM | 266 nM | 480 nM |
| GCCCGAAAGGGCCGAUGUGUUUGCGGCGAUCGAGGACCGGUACGGCCGCCACUCGUCGAGGCGUUCAGUGAUGUUGAAAGCAUUA | 334 nM | 279 nM | 352 nM | 354 nM | 626 nM |
| GCCGUACGCACGGAUACCAGCACUCGGUGAGUGAUGUUCACGGUGUGGUAUUCAUCGGGCUGCCCUUGGCAGCCGUGCGUACGGC | 153 nM | 93.6 nM | 101 nM | 129 nM | 107 nM |
| GCCGUACGCACGGAUACCAGCACUCGUUGAGUGAUGUUCACGGUGUGGUAUUCAACGGGCUGCCCUUGGCAGCCGUGCGUACGGC | 135 nM | 91.2 nM | 134 nM | 139 nM | 144 nM |
| GCCGUACGCAUGGAUACCAGCGCUCGUCACCUAGCAGUGAUGUUGCUAAUGCCACGAGGACGCCCUUGGCAGCCAUGCGUACGGC | 116 nM | 101 nM | 102 nM | 83.3 nM | 107 nM |
| GCCGUACGCAUGGAUACCAGCUACUAGAGUGAUGUUCUAUGGCCCUGCCAAUGGAGCUGUAGCCCUUGGCAGCCAUGCGUACGGC | 130 nM | 125 nM | 105 nM | 122 nM | 126 nM |
| GCCGUACGCAUGGAUACCAGCUUGUCCGAGUGAUGUUCGGGUCUGAAUGCCGGUAAUAAGAGCCCUUGGCAGCCAUGCGUACGGC | 137 nM | 104 nM | 124 nM | 117 nM | 123 nM |
| GCCGUACGCAUGGAUACCAGUCAAGAUCAGUGAUGUUGAUCUUUUAUAGAGCCUUCAUUAGACCCUUGGCAGCCAUGCGUACGGC | 429 nM | 237 nM | 391 nM | 373 nM | 250 nM |
| GCCGUAGAUCGAAGGAGCGUGCAAGAAUCGUAGUGAUGUUACGGAGAGUGUCACGCCGUCGCACAGGUAGGUCGCGAUCUACGGC | 71 nM | 76.4 nM | 84.1 nM | 69.2 nM | 66.8 nM |
| GCCGUAGAUGGAAGGAGCGUGAAUGGCCUCUAUCCAAAGUGAUGUUUUGUUGAAGACUGUUCACAGGUAGGUCGCCAUCUACGGC | 165 nM | 125 nM | 135 nM | 135 nM | 140 nM |
